# Results published in patent publication US20110306546A1, “COMPOSITIONS FOR INCREASING HAIR GROWTH AND DECREASING HAIR LOSS” (ALVI ARMANI GENOMICS INC., priority 2010, published 2011).
# B1: Nog: secreted polypeptide noggin, binds and inactivates TGF-beta superfamily signaling proteins (protein, UniProt Q13253 28-232, looked up)
# Noggin: QHYLHIRPAPSDNLPLVDLIEHPDPIFDPKEKDLNETLLRSLLGGHYDPGFMATSPPEDRPGGGGGAAGGAEDLAELDQLLRQRPSGAMPSEIKGLEFSEGLAQGKKQRLSKKLRRKLQMWLWSQTFCPVLYAWNDLGSRFWPRYVKVGSCFSKRSCSVPEGMVCKPSKSVHLTVLRWRCQRRGGQRCGWIPIQYPIISECKCSC
# B2: BMP-6: bone morphogenesis protein-6 (protein, UniProt P22004 375-513, looked up)
# Bone morphogenetic protein 6: SASSRRRQQSRNRSTQSQDVARVSSASDYNSSELKTACRKHELYVSFQDLGWQDWIIAPKGYAANYCDGECSFPLNAHMNATNHAIVQTLVHLMNPEYVPKPCCAPTKLNAISVLYFDDNSNVILKKYRNMVVRACGCH
# B3: Wnt: Wnt-3a growth factor (protein, UniProt P56704 19-352, looked up)
# Protein Wnt-3a: SYPIWWSLAVGPQYSSLGSQPILCASIPGLVPKQLRFCRNYVEIMPSVAEGIKIGIQECQHQFRGRRWNCTTVHDSLAIFGPVLDKATRESAFVHAIASAGVAFAVTRSCAEGTAAICGCSSRHQGSPGKGWKWGGCSEDIEFGGMVSREFADARENRPDARSAMNRHNNEAGRQAIASHMHLKCKCHGLSGSCEVKTCWWSQPDFRAIGDFLKDKYDSASEMVVEKHRESRGWVETLRPRYTYFKVPTERDLVYYEASPNFCEPNPETGSFGTRDRTCNVSSHGIDGCDLLCCGRGHNARAERRREKCRCVFHWCCYVSCQECTRVYDVHTCK
# B4: Eph: member of the Ephrin family, binds to the Eph receptor (protein, UniProt P52797 23-214, looked up)
# Ephrin-A3: QGPGGALGNRHAVYWNSSNQHLRREGYTVQVNVNDYLDIYCPHYNSSGVGPGAGPGPGGGAEQYVLYMVSRNGYRTCNASQGFKRWECNRPHAPHSPIKFSEKFQRYSAFSLGYEFHAGHEYYYISTPTHNLHWKCLRMKVFVCCASTSHSGEKPVPTLPQFTMGPNVKINVLEDFEGENPQVPKLEKSISG
# B5: FGF10: FGF-10, also known as keratinocyte growth factor (KGF2) (protein, UniProt O15520 38-208, looked up)
# Fibroblast growth factor 10: QALGQDMVSPEATNSSSSSFSSPSSAGRHVRSYNHLQGDVRWRKLFSFTKYFLKIEKNGKVSGTKKENCPYSILEITSVEIGVVAVKAINSNYYLAMNKKGKLYGSKEFNNDCKLKERIEENGYNTYASFNWQHNGRQMYVALNGKGAPRRGQKTRRKNTSAHFLPMVVHS
# Tested on: Hair follicles (HF)
# Assay: Hair follicle (HF) explant growth assay
# Assay type: cell-based, human
# Conditions: HF elongation after 7-8 days; 20 ng/ml of each growth factor, hypoxanthine 2 μM; mean of 6-8 independent experiments
# Procedure: Hair follicles (HF) were extracted from the occipital area of 6-8 individuals with hair loss. The HFs were processed to equivalent lengths and cultured in William's E medium supplemented with 100 units/ml penicillin G, 100 μg/ml streptomycin, 0.25 μg/ml amphotericin B, […], 1 ng/ml hydrocortisone; basic medium or control medium or basic medium supplemented with 20 ng/ml of each of IGF-1, FGF-2, PDGF, Wnt-3A (Wnt), Noggin (Nog), Ephrin A3 (Eph), SHH and BMP-6 as well as hypoxanthine (Hyx) at 2 μM final concentration. The “GF10 cocktail” or “GF10” includes all nine growth factors and hypoxanthine while the “GF7 cocktail” or “GF7” contains six growth factors (all growth factors of GF10 except for FGF-10, Eph and SHH) and hypoxanthine. Growth promotion was measured as elongation of the HF at the end of 7-8 days. All growth factors and hypoxanthine promoted growth individually and in combination (FIG. 1 and Table 1).
row,Molecule,Increase in growth (% control) Mean
1,B1,51.45 % control
2,B2,46.44 % control
3,B3,104.817 % control
4,B4,57.61 % control
5,B5,48.55 % control
